In paper PMC4564306:

Legend:
LexA-Rab10 Q68L (mouse) = LexA-Rab10 Q68L (mouse) (UniProt P61027); assay: two-hybrid
[1] = biological target: LexA-Rab10 wild-type (mouse) (UniProt P61027); assay: two-hybrid

GAD-Exoc6 CT (from UniProt Q8TAG9-1 384-797) (domain or fragment)
3-aminotriazole concentration that suppresses growth (LexA-Rab10 Q68L (mouse)): 1 mM

B1: GAD-Exoc6b CT (domain or fragment)
chain: SDPNLVLDLKNLIVLFADTLQVYGFPVNQLFDMLLEIRDQYSETLLKKWAGIFRNILDSDNYSPIPVTSEEMYKKVVGQFPFQDIELEKQPFPKKFPFSEFVPKVYNQIKEFIYACLKFSEDLHLSSTEVDDMIRKSTNLLLTRTLSNSLQNVIKRKNIGLTELVQIIINTTHLEKSCKYLEEFITNITNVLPETVHTTKLYGTTTFKDARHAAEEEIYTNLNQKIDQFLQLADYDWMTGDLGNKASDYLVDLIAFLRSTFAVFTHLPGKVAQTACMSACKHLATSLMQLLLEAEVRQLTLGALQQFNLDVRECEQFARSGPVPGFQEDTLQLAFIDLRQLLDLFIQWDWSTYLADYGQPNCKYLRVNPVTALTLLEKMKDTSRKNNMFAQFRKNERDKQKLIDTVAKQLRGLI
3-aminotriazole concentration that suppresses growth [1]: 1 to 5 mM | 3-aminotriazole concentration that suppresses growth (LexA-Rab10 Q68L (mouse)): 50 mM
